Reference: patent US10590475B2, “Detection of immune cells, in particular T cells through DNA-methylation analysis of the genes CCR6 and BLR1” (Epiontis GmbH, priority 2010, dated 2020)

System: CCR6^+CD4^+ memory T cells
Experiment: CCR6 expression on CCR6+CD4+ memory T cells after TCR stimulation (anti-CD3/anti-CD28 beads)
Type: cell-based, human
Conditions: six days, TGF-ß 10 ng/ml
Procedure: Buffy coats (DRK Blutspendedienst, Berlin, Germany) and peripheral blood samples were obtained from healthy donors after informed consent in accordance with local ethical committee approval. PBMCs were separated with a Ficoll-Hypaque gradient (Sigma-Aldrich). Cell surface antigens were analyzed by single-parameter or multi-parameter fluorescence-activated cell sorter (FACS®, BD Biosciences) analysis using the following monoclonal antibodies: PE-anti-CCR6 (11A9) and Alexa700-anti-CD4 (RPA-T4) (both from BD Biosciences). APC-anti-CD25 (BC96) was purchased from ebioscience. PE-Cy5-anti-CD8 (B9.11), PE-Cy5-anti-CD56 (N901) and FITC-anti-CD25 (B1.49.9) from Beckman Coulter. Antibodies generated in house (DRFZ, Berlin): FITC-anti-CD45RA (4G11), Alexa405-anti-CD4 (TT1) and Alexa405-anti-CD3 (OKT3). In some experiments, CCR6 expression was detected by indirect immunofluorescence using biotinylated CCR6 (11A9, BD Biosciences) followed by staining with APC-conjugated streptavidin (SouthernBiotech). […]
Memory CD4^+CCR6^+ and CD4^+CCR6^− cells were stained with carboxyfluorescein succinimidyl ester (CFSE) and cultured either in CM containing magnetic beads as described above or 10 ng/ml IL-7 and 10 ng/ml IL-15 (R&D Systems). […] At the end of the cultures, cells were analyzed by flow cytometry and used for methylation analyses (see below).

B1: IL-4: cytokine reported to promote TCR-induced CCR6 down-regulation (protein, UniProt P05112 25-153, looked up)
Interleukin-4: HKCDITLQEIIKTLNSLTEQKTLCTELTVTDIFAASKNTTEKETFCRAATVLRQFYSHHEKDTRCLGATAQQFHRHKQLIRFLKRLDRNLWGLAGLNSCPVKEANQSTLENFLERLKTIMREKYSKCSS
- effect on TCR-induced down-regulation of CCR6 expression: promoted
